For 13 molecules, EC50 results are on record in patent US20250215097A1 (BEIJING TIANNUOJIANCHENG PHARMA TECH, published 2025).

To fix the notation:
B1: 144D2 G34I (Fab, V domains shown)
VH: EVQLVESGGGLVQPKGSLKLSCAASGFTFNAFAMNWVRQAPGKGLEWVARIRSKSNNYATYYADSVIDRFTISRDDSQSMLYLQMNNLKTEDTAMYYCVRGKEAGAYYAMDYWGQGTSVTVSS
VL: DIVMTQAAPSVPVTPGESVSISCRSSKSLLHSNINTYLYWFLQRPGQSPQLLIYRMSNLASGVPDRFSGSGSGTAFTLRISRVEAEDVGVYYCMQHLEYPLTFGAGTKLEIK
notes: Purified Fab mutant
B2: 144D2 G34V (Fab, V domains shown)
VH: B1 VH
VL: B1 VL with I34V
notes: Purified Fab mutant
B3: 144D2 M56G (Fab, V domains shown)
VH: B1 VH
VL: B1 VL with I34G, M56G
notes: Purified Fab mutant
B4: 144D2 M56A (Fab, V domains shown)
VH: B1 VH
VL: B1 VL with I34G, M56A
notes: Purified Fab mutant
B5: 144D2 G34R (Fab, V domains shown)
VH: B1 VH
VL: B1 VL with I34R
notes: Purified Fab mutant
B6: 144D2 N33R (Fab, V domains shown)
VH: B1 VH
VL: B1 VL with N33R, I34G
notes: Purified Fab mutant
B7: 144D2 N33I (Fab, V domains shown)
VH: B1 VH
VL: B1 VL with N33I, I34G
notes: Purified Fab mutant
B8: 144D2 N33Y (Fab, V domains shown)
VH: B1 VH
VL: B1 VL with N33Y, I34G
notes: Purified Fab mutant
B9: 144D2 G34Y (Fab, V domains shown)
VH: B1 VH
VL: B1 VL with I34Y
notes: Purified Fab mutant
B10: 144D2 N33A (Fab, V domains shown)
VH: B1 VH
VL: B1 VL with N33A, I34G
notes: Purified Fab mutant from E. coli TG1, Ni-NTA purified
B11: 144D2 G34T (Fab, V domains shown)
VH: B1 VH
VL: B1 VL with I34T
notes: Purified Fab mutant
B12: 144D2 M56T (Fab, V domains shown)
VH: B1 VH
VL: B1 VL with I34G, M56T
notes: Purified Fab mutant
B13: 144D2 N33V (Fab, V domains shown)
VH: B1 VH
VL: B1 VL with N33V, I34G
notes: Purified Fab mutant

Numbering of substitutions follows the chain as printed.

In the test the target is T1, human CCR8 (human, UniProt P51685 1-355).
T1 construct: Full-length human CCR8 stably expressed on CHO or HEK293 cells; also endogenous on HuT78 cells in one ADCC assay; also called hCCR8; CHO-hCCR8
T1 sequence (P51685 whole entry): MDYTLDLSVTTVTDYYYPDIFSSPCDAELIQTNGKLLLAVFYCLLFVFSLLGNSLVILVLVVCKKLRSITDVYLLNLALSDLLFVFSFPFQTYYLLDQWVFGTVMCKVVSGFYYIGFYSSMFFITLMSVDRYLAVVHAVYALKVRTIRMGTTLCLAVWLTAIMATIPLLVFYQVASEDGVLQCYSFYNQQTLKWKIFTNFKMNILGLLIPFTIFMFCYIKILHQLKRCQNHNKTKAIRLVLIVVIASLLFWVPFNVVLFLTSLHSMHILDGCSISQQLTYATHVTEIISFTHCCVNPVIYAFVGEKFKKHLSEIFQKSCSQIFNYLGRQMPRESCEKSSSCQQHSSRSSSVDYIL
Put plainly: flow cytometry, purified Fab on CHO-hCCR8 cells. In general terms: In flow cytometry, cells or beads pass a laser one at a time.
As a reminder, the EC50 is the midpoint of the concentration-response curve. Low values mean higher potency in that assay, high ones lower potency in that assay. Regarding B1, a half-maximal effect (EC50) was put at 3.87 nM. As to B2, the concentration for a half-maximal effect (EC50) came to 3.16 nM. B3 displayed a 50% effective concentration (EC50) of 4.85 nM. As for B4, the midpoint of the response, the EC50, lay at 4.71 nM. B5 gave an EC50 of 1.34 nM. Under B6 stands 6.75 nM; under B7, 6.68 nM.

With B8, the concentration for a half-maximal effect (EC50) amounted to 13.8 nM. In the case of B9, it took 2.22 nM to reach a half-maximal effect (EC50).

As to B10, the EC50 was found to be 8.27 nM.

On to B11, for which the EC50 stood at 2.83 nM. To B12 belongs 2.69 nM. With B13, it took 5.72 nM to reach a half-maximal effect (EC50).
